Source: the supplement of paper PMC11246515
± gives the standard deviation of the averaged measurements.

Assay: total protein half-life in vivo (active degradation + dilution); higher = more stable protein
[1] = E. coli NCM3722 delta-clpP delta-lon delta-hslV, growth: N-lim chemostat, doubling time 6 h
[2] = E. coli NCM3722 delta-clpP, growth: N-lim chemostat, doubling time 6 h
[3] = E. coli NCM3722 delta-hslV, growth: N-lim chemostat, doubling time 6 h
[4] = E. coli NCM3722 delta-smpB, growth: N-lim chemostat, doubling time 6 h
[5] = wild type E. coli NCM3722, growth: C-lim chemostat, doubling time 6 h
[6] = wild type E. coli NCM3722, growth: C-lim chemostat, doubling time 12 h
[7] = wild type E. coli NCM3722, growth: N-lim chemostat, doubling time 6 h
[8] = wild type E. coli NCM3722, growth: N-lim chemostat, doubling time 12 h
[9] = wild type E. coli NCM3722, growth: P-lim chemostat, doubling time 6 h
[10] = wild type E. coli NCM3722, growth: P-lim chemostat, doubling time 12 h
[11] = E. coli NCM3722 delta-lon, growth: N-lim chemostat, doubling time 6 h
[12] = wild type E. coli NCM3722, growth: C-lim chemostat, doubling time 3 h

| Sequence | total protein half-life in vivo [1] [h] | total protein half-life in vivo [2] [h] | total protein half-life in vivo [3] [h] | total protein half-life in vivo [4] [h] | total protein half-life in vivo [5] [h] | total protein half-life in vivo [6] [h] | total protein half-life in vivo [7] [h] | total protein half-life in vivo [8] [h] | total protein half-life in vivo [9] [h] | total protein half-life in vivo [10] [h] | total protein half-life in vivo [11] [h] | total protein half-life in vivo [12] [h] |
| --- | --- | --- | --- | --- | --- | --- | --- | --- | --- | --- | --- | --- |
| MYKQAVILLLMLFTASVSAALPARYMQTIENAAVWAQIGDKMVTVGNIRAGQIIAVEPTAASYYAFNFGFGKGFIDKGHLEPVQGRQKVEDGLGDLNKPLSNQNLVTWKDTPVYNAPSAGSAPFGVLADNLRYPILHKLKDRLNQTWYQIRIGDRLAYISALDAQPDNGLSVLTYHHILRDEENTRFRHTSTTTSVRAFNNQMAWLRDRGYATLSMVQLEGYVKNKINLPARAVVITFDDGLKSVSRYAYPVLKQYGMKATAFIVTSRIKRHPQKWNPKSLQFMSVSELNEIRDVFDFQSHTHFLHRVDGYRRPILLSRSEHNILFDFARSRRALAQFNPHVWYLSYPFGGFNDNAVKAANDAGFHLAVTTMKGKVKPGDNPLLLKRLYILRTDSLETMSRLVSNQPQG | 5.86 ± 0.059 | 5.98 ± 0.23 | 5.24 ± 0.3 | 5.73 ± 0.38 | 4.78 | 12.5 | 5.58 ± 0.86 | 11.6 ± 3 | 5.64 | 12.4 |  |  |
| MYLYIETLKQRLDAINQLRVDRALAAMGPAFQQVYSLLPTLLHYHHPLMPGYLDGNVPKGICLYTPDETQRHYLNELELYRGMSVQDPPKGELPITGVYTMGSTSSVGQSCSSDLDIWVCHQSWLDSEERQLLQRKCSLLENWAASLGVEVSFFLIDENRFRHNESGSLGGEDCGSTQHILLLDEFYRTAVRLAGKRILWNMVPCDEEEHYDDYVMTLYAQGVLTPNEWLDLGGLSSLSAEEYFGASLWQLYKSIDSPYKAVLKTLLLEAYSWEYPNPRLLAKDIKQRLHDGEIVSFGLDPYCMMLERVTEYLTAIEDFTRLDLVRRCFYLKVCEKLSRERACVGWRRAVLSQLVSEWGWDEARLAMLDNRANWKIDQVREAHNELLDAMMQSYRNLIRFARRNNLSVSASPQDIGVLTRKLYAAFEALPGKVTLVNPQISPDLSEPNLTFIYVPPGRANRSGWYLYNRAPNIESIISHQPLEYNRYLNKLVAWAWFNGLLTSRTRLYIKGNGIVDLPKLQEMVADVSHHFPLRLPAPTPKALYSPCEIRHLAIIVNLEYDPTAAFRNQVVHFDFRKLDVFSFGENQNCLVGSVDLLYRNSWNEVRTLHFNGEQSMIEALKTILGKMHQDAAPPDSVEVFCYSQHLRGLIRTRVQQLVSECIELRLSSTRQETGRFKALRVSGQTWGLFFERLNVSVQKLENAIEFYGAISHNKLHGLSVQVETNHVKLPAVVDGFASEGIIQFFFEETQDENGFNIYILDESNRVEVYHHCEGSKEELVRDVSRFYSSSHDRFTYGSSFINFNLPQFYQIVKVDGREQVIPFRTKSIGNMPPANQDHDTPLLQQYFS | 4.23 ± 0.18 | 3.635 ± 0.028 | 1.14 ± 0.25 | 1.36 ± 0.081 | 1.19 | 1.66 ± 0.22 | 1.27 ± 0.07 | 1.72 ± 0.053 | 2.155 ± 0.0068 | 3.73 ± 0.4 | 1.04 ± 0.087 | 0.845 ± 0.015 |
| MYQDKILVRQLGLQPYEPISQAMHEFTDTRDDSTLDEIWLVEHYPVFTQGQAGKAEHILMPGDIPVIQSDRGGQVTYHGPGQQVMYVLLNLKRRKLGVRELVTLLEQTVVNTLAELGIEAHPRADAPGVYVGEKKICSLGLRIRRGCSFHGLALNVNMDLSPFLRINPCGYAGMEMAKISQWKPEATTNNIAPRLLENILALLNNPDFEYITA | 4.39 ± 0.44 | 4.08 ± 0.77 | 3.55 | 3.73 ± 0.15 | 6.03 ± 0.89 | 14.3 | 5.66 | 5.51 ± 1.4 | 5.14 ± 0.06 | 10.6 ± 0.37 | > 8 | 2.63 ± 0.15 |
| MYQPVALFIGLRYMRGRAADRFGRFVSWLSTIGITLGVMALVTVLSVMNGFERELQNNILGLMPQAILSSEHGSLNPQQLPETAVKLDGVNRVAPITTGDVVLQSARSVAVGVMLGIDPAQKDPLTPYLVNVKQTDLEPGKYNVILGEQLASQLGVNRGDQIRVMVPSASQFTPMGRIPSQRLFNVIGTFAANSEVDGYEMLVNIEDASRLMRYPAGNITGWRLWLDEPLKVDSLSQQKLPEGSKWQDWRDRKGELFQAVRMEKNMMGLLLSLIVAVAAFNIITSLGLMVMEKQGEVAILQTQGLTPRQIMMVFMVQGASAGIIGAILGAALGALLASQLNNLMPIIGVLLDGAALPVAIEPLQVIVIALVAMAIALLSTLYPSWRAAATQPAEALRYE [P0ADC3] | 6.47 ± 0.46 | 6.838 ± 0.034 | 6.01 ± 0.34 | 6.43 ± 0.65 | 5.78 ± 1.3 | 12.3 ± 0.59 | 5.8 ± 0.06 | 13.1 ± 1.6 | 6.178 ± 0.04 | 12.3 ± 1.1 | 6.53 ± 1.3 | 3.11 ± 0.068 |
| MYTLNWQPPYDWSWMLGFLAARAVSSVETVADSYYARSLAVGEYRGVVTAIPDIARHTLHINLSAGLEPVAAECLAKMSRLFDLQCNPQIVNGALGRLGAARPGLRLPGCVDAFEQGVRAILGQLVSVAMAAKLTARVAQLYGERLDDFPEYICFPTPQRLAAADPQALKALGMPLKRAEALIHLANAALEGTLPMTIPGDVEQAMKTLQTFPGIGRWTANYFALRGWQAKDVFLPDDYLIKQRFPGMTPAQIRRYAERWKPWRSYALLHIWYTEGWQPDEA | 6.48 |  |  |  | 2.85 | 4.47 | 1.34 | 1.62 | 3.45 |  |  | 2.32 ± 0.17 |
| MYYPFVRKALFQLDPERAHEFTFQQLRRITGTPFEALVRQKVPAKPVNCMGLTFKNPLGLAAGLDKDGECIDALGAMGFGSIEIGTVTPRPQPGNDKPRLFRLVDAEGLINRMGFNNLGVDNLVENVKKAHYDGVLGINIGKNKDTPVEQGKDDYLICMEKIYAYAGYIAINISSPNTPGLRTLQYGEALDDLLTAIKNKQNDLQAMHHKYVPIAVKIAPDLSEEELIQVADSLVRHNIDGVIATNTTLDRSLVQGMKNCDQTGGLSGRPLQLKSTEIIRRLSLELNGRLPIIGVGGIDSVIAAREKIAAGASLVQIYSGFIFKGPPLIKEIVTHI [P0A7E1] | 6.89 ± 0.98 | 6.3 ± 1.1 | 6.7 ± 0.85 | 6.46 ± 0.65 | 5.72 ± 0.16 | 13.1 ± 0.45 | 6.26 ± 0.34 | 12.5 ± 0.72 | 6.03 ± 0.28 | 14.2 ± 1.6 | 6.48 ± 0.29 | 3.04 ± 0.24 |
